Assay results taken from patent US20250270273A1 (NEKTAR THERAPEUTICS, published 2025).
Each block holds one molecule with its values, some of them ahead of it.

Legend:
[1] = target: T1, IFN-γ receptor (IFNGR; IFNGR1 and IFNGR2) on human cells (human) (UniProt P15260); assay: cell-based or functional assay
T1 sequence (looked up) 1: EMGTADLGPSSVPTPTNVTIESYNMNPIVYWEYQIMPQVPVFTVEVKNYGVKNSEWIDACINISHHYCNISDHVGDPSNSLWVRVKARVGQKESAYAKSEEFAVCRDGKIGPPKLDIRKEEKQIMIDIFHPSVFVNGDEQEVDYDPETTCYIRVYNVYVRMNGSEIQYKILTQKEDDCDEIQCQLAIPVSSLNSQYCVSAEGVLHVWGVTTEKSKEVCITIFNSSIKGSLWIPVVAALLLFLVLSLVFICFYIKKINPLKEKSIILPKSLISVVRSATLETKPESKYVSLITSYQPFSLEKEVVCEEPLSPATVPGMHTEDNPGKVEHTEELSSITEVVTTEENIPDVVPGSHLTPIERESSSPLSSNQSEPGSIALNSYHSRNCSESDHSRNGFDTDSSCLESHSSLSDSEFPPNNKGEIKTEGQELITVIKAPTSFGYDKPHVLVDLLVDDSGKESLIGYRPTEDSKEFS
T1 sequence (looked up) 2: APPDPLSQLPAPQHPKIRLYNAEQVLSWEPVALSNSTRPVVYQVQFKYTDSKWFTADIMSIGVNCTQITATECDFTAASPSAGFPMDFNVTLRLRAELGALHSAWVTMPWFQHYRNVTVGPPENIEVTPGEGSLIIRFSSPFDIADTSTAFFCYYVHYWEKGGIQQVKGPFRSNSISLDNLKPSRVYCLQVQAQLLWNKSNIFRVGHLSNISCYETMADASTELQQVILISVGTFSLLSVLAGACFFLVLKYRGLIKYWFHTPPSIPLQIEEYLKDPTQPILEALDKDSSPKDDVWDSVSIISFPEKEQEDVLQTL

[2] = target: T2, IFN-γ receptor (IFNGR; IFNGR1 and IFNGR2) on human cells (human, UniProt P15260 18-489; P38484 22-337); assay: cell-based or functional assay
T2 sequence (looked up) 1: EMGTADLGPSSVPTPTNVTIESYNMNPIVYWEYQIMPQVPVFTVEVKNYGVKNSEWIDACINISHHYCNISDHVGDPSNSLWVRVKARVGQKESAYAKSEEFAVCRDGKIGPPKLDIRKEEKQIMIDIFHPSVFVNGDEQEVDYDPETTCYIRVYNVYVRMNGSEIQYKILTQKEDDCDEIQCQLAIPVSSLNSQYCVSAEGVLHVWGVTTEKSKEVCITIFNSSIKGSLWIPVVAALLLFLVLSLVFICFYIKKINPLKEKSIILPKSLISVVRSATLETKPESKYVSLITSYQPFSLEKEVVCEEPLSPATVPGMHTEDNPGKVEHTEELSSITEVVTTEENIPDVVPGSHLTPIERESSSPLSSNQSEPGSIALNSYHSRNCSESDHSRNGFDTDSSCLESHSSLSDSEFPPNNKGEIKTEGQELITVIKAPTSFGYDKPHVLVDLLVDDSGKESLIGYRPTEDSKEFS
T2 sequence (looked up) 2: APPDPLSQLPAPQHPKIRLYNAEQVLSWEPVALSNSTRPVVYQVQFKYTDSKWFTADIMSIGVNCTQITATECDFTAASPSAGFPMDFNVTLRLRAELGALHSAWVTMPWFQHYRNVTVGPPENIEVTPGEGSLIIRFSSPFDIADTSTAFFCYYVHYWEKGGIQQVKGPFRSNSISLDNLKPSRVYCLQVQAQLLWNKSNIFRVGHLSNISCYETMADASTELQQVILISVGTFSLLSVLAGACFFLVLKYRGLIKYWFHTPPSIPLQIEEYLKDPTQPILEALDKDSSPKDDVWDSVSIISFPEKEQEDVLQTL

[3] = target: T2, IFN-γ receptor (IFNGR; IFNGR1 and …); assay: cell-based or functional assay; remark: listed apart in the source
[4] = target: T3, IFNγR1 fused to the constant region of the antibody IgG1 (UniProt P15260 18-245, limits assumed); assay: SPR (Biacore, CM5 chip), IFNγR1-IgG1 Fc captured by anti-human IgG, analyte injected
T3 construct: also called IFNGR1; Interferon gamma receptor 1 fused to the Fc region; not shown: constant region (Fc) of IgG1, captured on the chip by an anti-human IgG antibody
T3 sequence (looked up): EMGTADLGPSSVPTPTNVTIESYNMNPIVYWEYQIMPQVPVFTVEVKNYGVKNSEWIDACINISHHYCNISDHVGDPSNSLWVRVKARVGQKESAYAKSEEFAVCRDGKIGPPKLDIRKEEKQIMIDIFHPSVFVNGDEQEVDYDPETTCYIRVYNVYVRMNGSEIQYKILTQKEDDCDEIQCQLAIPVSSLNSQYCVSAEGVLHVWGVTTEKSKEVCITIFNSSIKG
Protocol: Briefly, the surface of a BAcore™ CM5 sensor chip was coated with anti-human IgG antibody comprising IFNγR1 fused to the constant region of the antibody IgG₁.
Each of the IFN-γ-b protein, the M135C, S98C, and S66C cysteine muteins, and Compounds 1, 2, and 3 were separately injected onto the sensor chip which was coated with IFNγR1. The affinities were measured by determining the kinetic on-rate (kₒₙ) and the kinetic off-rate (koff) rates separately, and the ratio between kₒₙ and koff was used to calculate the Kd values with the results shown in Table 9.

EC50 in HT-29 cells, MHCI (Compound 7 (1)) [1]: 5.3 ng/mL
EC50 in HT-29 cells, MHCII (Compound 7 (1)) [1]: 150 ng/mL
EC50 in HT-29 cells, PD-L1 (Compound 7 (1)) [1]: 190 ng/mL
EC50 in HT-29 cells, pSTAT1 (Compound 7 (2)) [1]: 969 ng/mL
Molecule: Compound 7, ring-opened mono-mPEG2-MAL-20K-rhIFN-γ-1b-M135C (from UniProt P01579 24-162) (ligand)

EC50 in HT-29 cells, MHCI [1]: 0.023 ng/mL
EC50 in HT-29 cells, MHCII [1]: 0.27 ng/mL
EC50 in HT-29 cells, PD-L1 [1]: 0.37 ng/mL
EC50 in HT-29 cells, pSTAT1 [1]: 1.3 ng/mL
Molecule: Compound 5, mono-mPEG2-MAL-20K-rhIFN-γ-1b-S66C (from UniProt P01579 24-162) (ligand)

Continued, molecule first:

Molecule: Compound 4, mono-mPEG2-MAL-40K-rhIFN-γ-1b-M135C (from UniProt P01579 24-162) (ligand)
EC50 (ng/mL)-% pSTAT1, CD14+CD16+ (Intermediate) monocytes of human PBMCs [1]: 10.1 ng/mL
EC50 (ng/mL)-% pSTAT1, CD14+CD16- (Classical) monocytes of human PBMCs [1]: 32.6 ng/mL
EC50 (ng/mL)-% pSTAT1, CD14loCD16hi (Non-classical) monocytes of human PBMCs [1]: 11.7 ng/mL
EC50 (ng/mL)-MFI of pSTAT1, Classical monocytes of human PBMCs [1]: 152 ng/mL
EC50 (ng/mL)-MFI of pSTAT1, Intermediate monocytes of human PBMCs [1]: 84.2 ng/mL
EC50 (ng/mL)-MFI of pSTAT1, Non-classical monocytes of human PBMCs [1]: 97.5 ng/mL
EC50 in HT-29 cells, MHCI [1]: 0.3 ng/mL
EC50 in HT-29 cells, MHCII [1]: 3.1 ng/mL
EC50 in HT-29 cells, PD-L1 [1]: 3.6 ng/mL
EC50 in HT-29 cells, pSTAT1 [1]: 180 ng/mL

Molecule: Compound 6, mono-mPEG2-MAL-20K-rhIFN-γ-1b-N98C (from UniProt P01579 24-162) (ligand)
EC50 in HT-29 cells, MHCI [1]: 0.047 ng/mL
EC50 in HT-29 cells, MHCII [1]: 0.86 ng/mL
EC50 in HT-29 cells, PD-L1 [1]: 1.3 ng/mL
EC50 in HT-29 cells, pSTAT1 [1]: 1.2 ng/mL

B1: rhIFN-γ-1b (wild-type recombinant human interferon-γ-1b) (ligand)
chain: MQDPYVKEAENLKKYFNAGHSDVADNGTLFLGILKNWKEESDRKIMQSQIVSFYFKLFKNFKDDQSIQKSVETIKEDMNVKFFNSNKKKRDDFEKLTNYSVTDLNVQRKAIHELIQVMAELSPAAKTGKRKRSQMLFRGR
notes: also called wt (rhIFN-γ-1b); WT IFN-γ-1b (Actimmune)
EC50 (ng/mL)-% pSTAT1, CD14+CD16+ (Intermediate) monocytes of human PBMCs [2]: 0.015 ng/mL
EC50 (ng/mL)-% pSTAT1, CD14+CD16- (Classical) monocytes of human PBMCs [2]: 0.035 ng/mL
EC50 (ng/mL)-% pSTAT1, CD14loCD16hi (Non-classical) monocytes of human PBMCs [2]: 0.018 ng/mL
EC50 (ng/mL)-MFI of pSTAT1, Classical monocytes of human PBMCs [2]: 0.3 ng/mL
EC50 (ng/mL)-MFI of pSTAT1, Intermediate monocytes of human PBMCs [2]: 0.24 ng/mL
EC50 (ng/mL)-MFI of pSTAT1, Non-classical monocytes of human PBMCs [2]: 0.26 ng/mL
EC50 in HT-29 cells, MHCI [3]: 0.079 ng/mL
EC50 in HT-29 cells, MHCII [3]: 0.53 ng/mL
EC50 in HT-29 cells, PD-L1 [3]: 0.69 ng/mL
EC50 in HT-29 cells, pSTAT1 [3]: 1 ng/mL
Kd [4]: 65.5 pM
koff [4]: 0.000701 s⁻¹
kon [4]: 1.07e+07 M⁻¹ s⁻¹
